Measurements taken from IntAct's records for PubMed 26972053.

B1: Cytosolic arginine sensor for mTORC1 subunit 1 (Homo sapiens), Q8WTX7 (parent)
chain: MELHILEHRVRVLSVARPGLWLYTHPLIKLLFLPRRSRCKFFSLTETPEDYTLMVDEEGFKELPPSEFLQVAEATWLVLNVSSHSGAAVQAAGVTKIARSVIAPLAEHHVSVLMLSTYQTDFILVREQDLSVVIHTLAQEFDIYREVGGEPVPVTRDDSSNGFPRTQHGPSPTVHPIQSPQNRFCVLTLDPETLPAIATTLIDVLFYSHSTPKEAASSSPEPSSITFFAFSLIEGYISIVMDAETQKKFPSDLLLTSSSGELWRMVRIGGQPLGFDECGIVAQIAGPLAAADISAYYISTFNFDHALVPEDGIGSVIEVLQRRQEGLAS
partner: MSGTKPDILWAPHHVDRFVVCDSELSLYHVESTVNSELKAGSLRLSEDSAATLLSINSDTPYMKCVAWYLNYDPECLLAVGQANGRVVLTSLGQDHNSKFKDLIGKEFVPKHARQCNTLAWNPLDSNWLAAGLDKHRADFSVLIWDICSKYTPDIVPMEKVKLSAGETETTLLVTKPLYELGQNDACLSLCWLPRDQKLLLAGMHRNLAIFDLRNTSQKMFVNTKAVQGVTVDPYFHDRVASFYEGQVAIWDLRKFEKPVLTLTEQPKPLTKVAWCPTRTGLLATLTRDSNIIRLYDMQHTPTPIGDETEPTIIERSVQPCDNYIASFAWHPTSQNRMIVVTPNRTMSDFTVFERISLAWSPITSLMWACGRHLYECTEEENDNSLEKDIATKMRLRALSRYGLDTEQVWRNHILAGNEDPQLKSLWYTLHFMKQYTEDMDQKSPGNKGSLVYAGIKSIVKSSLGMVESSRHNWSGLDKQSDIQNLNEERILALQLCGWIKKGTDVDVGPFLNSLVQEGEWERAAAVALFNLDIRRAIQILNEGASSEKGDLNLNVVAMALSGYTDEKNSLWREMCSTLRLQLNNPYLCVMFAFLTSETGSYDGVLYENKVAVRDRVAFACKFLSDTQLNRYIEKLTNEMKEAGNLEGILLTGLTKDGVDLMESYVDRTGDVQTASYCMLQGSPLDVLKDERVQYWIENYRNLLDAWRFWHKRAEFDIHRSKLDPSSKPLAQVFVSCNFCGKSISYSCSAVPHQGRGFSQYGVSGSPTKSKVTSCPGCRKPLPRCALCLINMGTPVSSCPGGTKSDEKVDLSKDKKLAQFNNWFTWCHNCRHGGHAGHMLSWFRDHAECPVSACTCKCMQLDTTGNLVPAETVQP

Variants of: B1
Details: with mios_human MIOS

| Variant | effect of a mutation on the interaction |
| --- | --- |
| MELHILEHRVRVLSVARPGLWLYTHPLIKLLFLPRRSRCKFFSLTETPEDYTLMVDEEGFKELPPSEFLQVAEATWLVLNVSSHSGAAVQAAGVTKIARSVIAPLAEHHVSVLMLSTYQTDFILVREQDLSVVIHTLAQEFDIYREVGGEPVPVTRDDSSNGFPRTQHGPSPTVHPIQSPQNRFCVLTLDPETLPAIATTLIDVLFYSHSTPKEAASSSPEPSSITFFAFSLIEGYISIVMDAETQKKFPSDLLLTSSSGELWRMVRIGGQPLGFDECGAVAQIAGPLAAADISAYYISTFNFDHALVPEDGIGSVIEVLQRRQEGLAS [I280A] | disrupting interaction strength |
